Assay results taken from patent US20100297623A1 (COUNCIL OF THE QUEENSLAND INSTITUTE OF MEDICAL RESEARCH, published 2010).

Molecular target: the molecule itself
Assay: gel filtration (self-association)

B1: human ssDNA binding protein 1 (hSSB1) (other)
chain: MTTETFVKDIKPGLKNLNLIFIVLETGRVTKTKDGHEVRTCKVADKTGSINISVWDDVGNLIQPGDIIRLTKGYASVFKGCLTLYTGRGGDLQKIGEFCMVYSEVPNFSEPNPEYSTQQAPNKAVQNDSNPSASQPTTGPSAASPASENQNGNGLSAPPGPGGGPHPPHTPSHPPSTRITRSQPNHTPAGPPGPSSNPVSNGKETRRSSKR
notes: also called human SSB1
B1: binds.
